Assay results reported in patent publication US20090158455A1, “COMPOSITIONS AND METHODS FOR MODULATING LYSINE PRODUCTION” (priority 2005, published 2009).

Assays:
Format in all cases: biochemical
CT390 [1] = target: T1, CT390 (Chlamydia trachomatis serovar D, UniProt O84395); assay: Quantitative reverse assay of pure CT390; settings: reverse assay, saturating substrates
T1 construct: His-Tag (N); made in house; host or cells: E. coli

CT390 [2] = target: T1, CT390; assay: Quantitative forward assay of pure CT390; settings: saturating substrates
Protocol: All enzyme assays were carried out essentially as described in Example I. Incubation temperature was 30° C. Kinetic constants were determined by varying substrate concentrations while keeping the co-substrate level constant at the concentration described below. Kinetic data were analyzed by non-linear regression analysis using GraphPad Prizm Version 4.03.
Quantitative assay of the physiologically forward reaction was carried out sequentially in a pre-reaction to generate THDP from m-DAP followed by an LL-DAP aminotransferase assay. […] The pre-reaction was run to completion, monitored by the increase in absorbance at 340 nm resulting from NADPH formation. The aminotransferase reaction was monitored at 398 nm to measure the formation of thioNADH. […] Subsequently, the aminotransferase assay was initiated by addition of CT390, bringing the total reaction volume to 1 mL.

LL-DAP-AT (At4g33680) = target: T2, LL-DAP-AT (At4g33680) (Arabidopsis thaliana, UniProt Q93ZN9); assay: Reverse OAB assay of pure recombinant LL-DAP-AT, temperature and pH optimum; settings: data not shown
T2 construct: The recombinant protein lacks the first 39 amino acids of the At4g33680 protein; hexa-His (N); S-TAG (N); made in house; host or cells: E. coli BL21-CodonPlus-RIPL
Protocol: (§1) For enzyme assays of crude proteins, extracts were prepared by grinding tissue in liquid nitrogen with 100 mM HEPESKOH (pH 7.6), followed by centrifugation at 10,000 g for 15 min, and then buffer exchange using an Amicon Ultra 30,000 MWCO filter. […] Reactions were incubated at 30° C. and the ΔA (440 nm) measured continuously. […] The reaction was incubated at 30° C., and the decrease in A340 was measured. […] The reaction was run to completion, determined by monitoring the increase in A340. […] The kinetic constants were calculated by nonlinear regression analysis using GraphPad Prizm version 4.03.
The kinetic properties of the pure recombinant At4g33680 enzyme were studied using several different assays. […] Most aminotransferases require pyridoxal phosphate as a cofactor (Liepman and Olsen, 2004). The Lys residue at position 305 in the At4g33680 protein is predicted to be the pyridoxal phosphate ligand. […] The enzyme was also found to show a temperature optimum of 36° C. and a pH optimum of 7.6 when HEPESKOH buffer was used, and 7.9 when Tris HCl buffer was used (data not shown).

LL-DAP transaminase [3] = assay: Quantitative forward assay of purified microbial LL-DAP transaminases
Protocol: (§2) Enzyme assays were performed as described above in Examples I and II.
(§3) The catalytic properties of sll0480, BF2643, Dhaf—3980, MTH52, and SfumDRAFT0821 were studied in greater detail using purified enzymes to determine their kinetic constants using quantitative forward and reverse assays.

[4] = target: T3, Arabidopsis LL-DAP-AT (At4g33680) (Arabidopsis thaliana, UniProt Q93ZN9); assay: Quantitative reverse assay coupled to Ddh, pure recombinant LL-DAP-AT; settings: 30° C.
T3 construct: The recombinant protein lacks the first 39 amino acids of the At4g33680 protein; hexa-His (N); S-TAG (N); made in house; host or cells: E. coli BL21-CodonPlus-RIPL
Protocol: For enzyme assays of crude proteins, extracts were prepared by grinding tissue in liquid nitrogen with 100 mM HEPESKOH (pH 7.6), followed by centrifugation at 10,000 g for 15 min, and then buffer exchange using an Amicon Ultra 30,000 MWCO filter. […] Reactions were incubated at 30° C. and the ΔA (440 nm) measured continuously. […] The reaction was incubated at 30° C., and the decrease in A340 was measured. […] The reaction was run to completion, determined by monitoring the increase in A340.
For this reason quantitative coupled assays were developed to assess the enzyme activity in both the reverse and forward directions. […] The reaction sequence is shown in Scheme 1.

[5] = target: T3, Arabidopsis LL-DAP-AT (At4g33680); assay: Quantitative forward assay coupled to 2-OG dehydrogenase, pure recombinant LL-DAP-AT; settings: for Vmax: forward assay; for Forward (biosynthetic) activity disfavored compared with the reverse activity: initial rate, forward versus reverse
Protocol: FIG. 4. […] The forward assay was conducted in two steps. […] The aminotransferase was assayed in the second step.
as §1
The overall reaction series is shown in Scheme 2.
Thio-NADH has an absorbance maximum at 398 nm, which can be discerned from NADPH, which has an absorbance maximum at 340 nm. FIG. 4 illustrates such a reaction. […] Two plots are shown using 0.55 and 0.055 mM m-DAP.

LL-DAP transaminase [6] = assay: Quantitative reverse assay of purified microbial LL-DAP transaminases; settings: reverse
Protocol: as §2, §3

Row | Molecule | Vmax (CT390 [1]) | Vmax (CT390 [2]) | pH optimum (LL-DAP-AT (At4g33680); HEPESKOH buffer) | pH optimum (LL-DAP-AT (At4g33680); Tris HCl buffer) | Temperature optimum (LL-DAP-AT (At4g33680)) | Vmax F (LL-DAP transaminase [3]) | Vmax ([4]; pH 7.5) | Vmax ([4]; pH 7.5, listed as LL-DAP-AT) | Vmax [5] | Vmax ([5]; listed as LL-DAP-AT) | Forward (biosynthetic) activity disfavored compared with the reverse activity [5] | Forward (biosynthetic) activity disfavored compared with the reverse activity ([5]; listed as A. thaliana enzyme) | Vmax R (LL-DAP transaminase [6])
1 | CT390: LL-DAP aminotransferase encoded by ct390 of Chlamydia trachomatis (SEQ ID NO: 9), His-Tag fusion (protein, listed as Chlamydia trachomatis, His-Tag) MKRNPHFVSLTKNYLFADLQKRVAQFRLENPQHTVINLSIGDTTQPLNASVAEAFASSIARLSSPTTCRGYGPDFGLPALRQKLSEDFYRGFVDAKEIFISDGAKVDLFRLLSFFGPNQTVAIQDPSYPAYLDIARLTGAKEIIALPCLQENAFFPEFPEDTHIDILCLCSPNNPTGTVLNKDQLRAIVHYAIEHEILILFDAAYSTFISDPSLPKSIFEIPDARFCAIEINSFSKPLGFAGIRLGWTVIPQELTYADGHFVIQDWERFLSTTFNGASIPAQEAGVAGLSILPQLEAIHYYRENSDLLRKALLATGFEVFGGEHAPYLWVKPTQANISDRDLFDFFLREYHIAITPGIGFGRSGSGFVRFSSLGKREDILAACERLQMAPALQS | 0.59 μmol min^−1mg proteins^−1 | 0.38 μmol min^−1mg proteins^−1 |  |  |  |  |  |  |  |  |  |  | 
2 | Arabidopsis LL-DAP-AT: LL-DAP aminotransferase encoded by Arabidopsis locus At4g33680 (SEQ ID NO: 7), recombinant protein (protein, listed as Arabidopsis thaliana) MSSTHQLVSSMISSSSSTFLAPSNFNLRTRNACLPMAKRVNTCKCVATPQEKIEYKTKVSRNSNMSKLQAGYLFPEIARRRSAHLLKYPDAQVISLGIGDTTEPIPEVITSAMAKKAHELSTIEGYSGYGAEQGAKPLRAAIAKTFYGGLGIGDDDVFVSDGAKCDISRLQVMFGSNVTIAVQDPSYPAYVDSSVIMGQTGQFNTDVQKYGNIEYMRCTPENGFFPDLSTVGRTDIIFFCSPNNPTGAAATREQLTQLVEFAKKNGSIIVYDSAYAMYMSDDNPRSIFEIPGAEEVAMETASFSKYAGFTGVRLGWTVIPKKLLYSDGFPVAKDFNRIICTCFNGASNISQAGALACLTPEGLEAMHKVIGFYKENTNIIIDTFTSLGYDVYGGKNAPYVWVHFPNQSSWDVFAEILEKTHVVTTPGSGFGPGGEGFVRVSAFGHRENILEACRRFKQLYK |  |  | 7.6 | 7.9 | 36 °C | 0.8 µmol/min/mg | 22.3 ± 0.3 μmol min^−1 mg^−1 protein | 22.3 μmol min^−1 mg^−1 protein | 0.38 ± 0.01 μmol min^−1 mg^−1 protein | 0.38 μmol min^−1 mg^−1 protein | 50 fold | approximately 60 fold | 12 µmol/min/mg
